The DeepSol protein solubility set

experiment: soluble on expression in E. coli; label from the status in PepcDB or PDB records

**Q.** With “MGSDKIHHHHHHASGGVEKINHIVVIYLENRSFDNMFGRFPGADGLEAAKGAPVQVDREGKPYTVLPPILDEKTKQPDPRFPAQIANAPFDIGPHVGQSEKHRDLVHRFYQNMEQINGGRNDKFAAWSDAGGLVMGTYDTSNTRLWALAREFTLADNFFQAAFGGSFLNHFWLICACTPQYEAAPASIRAQLDGDGHLVKDGAVTPDGYPVNTIFSFYPPYPPSATDLAKRLPPQTAPNIGDRLSGKNVSWAWYSGGYAAALEGRNQGNFQYHHQPFVYFASTGEGTKAKARHLKDEAPLFESVAAGRLESVVFYKPVGDENQHPGYADLASGDAKAARLVDAIRASALWKDTAIIITYDENGGFWDHVAPPKGDRWGPGTRIPALIISPYAKRGFVDHTVYDTTSILKLIETRFGLPPLGRRDAVANDLTAAFDFTSERR” as the sequence, how does the “soluble on expression in E. coli” value read?
**A.** not soluble

**Q.** Which “soluble on expression in E. coli” value does the source give for “MGSDKIHHHHHHASTKVAKSKAKGKVIVYYVYGKRGHTGKYLWSKKTLTGKIGTTYHTKALDLLNDSGYMALASHSKNTSGKFTRKTTKVYYRYYDVIERDYEFKHEADLYMELTGDHRIGLFDRNLQDGVEVVVERTNFSKPYYDVSYSNRVDTGHGSGLKEFHYRFGSTHRFKDNRDGNIYTMALTNSGGITFHAVATKHSTMNELVQVSAHGKLLTAKIRK” here?
**A.** not soluble

**Q.** Which “soluble on expression in E. coli” value does the source give for “MGSDKIHHHHHHATWITTLGGMDWPRNKAVNASGIRRQQKELCDILDRLKAANFNTVLLQTRLRGDMIYPSAIETFGESLTGSTGGNPGYDPLAFAIGECHKRGMELHAWIVTIPAGNTRQVQLQGRSSVVRKNRTICKLYKGNWYLDPGNPGTKEYLSCIVKEITSRYDIDGIHFDYIRYPEQADNFPDKDTYRKYGKGKELKQWRRDNITDIVHRLYTDIKTIKPWVKVSSSPIGKYRDTNRYPSRGWNAYHVVYQDAQKWLKEGIHDALFPMMYFQGNNFYPFALDWKENCGNRWIVPGLGIYFLSPDEQNWPLDEIVRQLHFTRQIKLNGQAYFRNRFLLNNTKGIWDELQENFYTTPALIPPMTWMDSIPPSTPAMPSLQLLPDGKMHMSWQISTDNNGGLVTYHLYASDTYPVDITDAGNLLETYLTHTEYEYTPISPWRQKRYFAVTAADRFGNESAPLELNAISETDMPLLNDGDILTLPEIKEAKTVKIFTVTGEEIKYFVYAPQMSIASLPGGFYTVYILNNAGAQTFVGTIVK” here?
**A.** not soluble

**Q.** With “MGSDKIHHHHHHDDDNDYYRYALPNALVTVKPVADNSFFMQLDDSTTLLPVNMKNSPYGEKEVRALVNFDPVNESSGEYDKAVHINWIDSILTKPIAGDLGDKNDEVYGTDPVDMINDWVTIAEDGYLTLRFRTMWGNRSQAHFVNLLMSKDAENPYEVEFRHNAFGDVYGEPADGLVAFNLDSLPDTEGKTVKLKLKWKSFNGEKTAEFDYCTRKSTPANSAAITAGRSVLRLK” as the sequence, how does the “soluble on expression in E. coli” value read?
**A.** not soluble

**Q.** Which “soluble on expression in E. coli” value does the source give for “MGSDKIHHHHHHDDNEIEIPKAPVLEKAQLALAIKSEEGAVTKTGETTPTDADVNTLTVGVFGVDGWSVIYTKDATPNSDGTKDVGPQEVYAGEAHVVVVANAAPVIQTELAKAKDITDFIETTINLSDETLTKGLTMSSKVLDVTLVANTTNYIGYDDEVGDITVKDISGKEVYGAGPVPLVRDVASIALAGADIGNPENANYESKSFVLKEVFIASAKGVSSVASTEEWGTIEKDFFGDTHFGYLDYKVGLLFLTSPNNIDEGSYKKGLQTKYDALAKKHVENDPALNHEFYVYENTKGEVKSGESNVNEAYANHTLLIVKGDYTYLPQGAKESITKENCYYAIPVGEEVTIDGTEKRSKFYVQRNYKYEISLTIIGPGSEIPYDPMISTNVSASVKVEPWNVKTIHEEVE” here?
**A.** not soluble

**Q.** For “MGSDKIHHHHHHDPLESMNRGIYKFNDTADKAVLKPIAGAYKAVLPSPIRTGVNNFFTNLGTFTSLVNNILQLELGKAMDNTGRLLINSTIGIGGLVDVASMDGVPNHRADFGQTLGKWGVGSGAYLVLPFLGPSTLRDTAGLTIDTLYFDPIQYTNHVRERNQLRMLSFIDLRSQYLPASDLIDDAALDPYIFMREAYLERRHQFVTGEASSFDDFDDDDEEVTPPEPQ”, which “soluble on expression in E. coli” value is on record?
**A.** not soluble

**Q.** Which “soluble on expression in E. coli” value does the source give for “MGSDKIHHHHHHDSVKTNTNPQQAIQGEWISYSESKINLPKTTSAADAHKLLDLTASTSEKIKFDKKKVTLATNEYDYKLGRQIIIGSYSYDYKLEHGQDILKFDTTSSDIGGNVYYRVGSKLEKEKTKEINDKEAKEKKSVTHLNEVWKAKTDIIEKSLKEAMIGTWSGHFKAVATTGQGVAWAPGMQTLTFDGGTNLSFHASSDSLTNFDQIVIHNAYASYQPNGILGLEPSDHIPVDPKKLLNIIKDLTAEQMFSRIKYIAFSYDVTTDTGTISQSFSPSELSYKNGKLSFDTALLITQCGDEGVQISGDVSKTE” here?
**A.** not soluble

**Q.** With “MGSDKIHHHHHHEAKGHQTVKIDTVVSADKQTFLQFPGKVKAAQDISLAFRVSGTISKIHVKDGARVQEGQLLAELDPTDYQVQLDATEAEYQQIKAEAERVMALYKDNGTTPNANDKAVYGLKQITAKYKHHKDQLAYTRLYAPFNGYVQKRLFEAHETIGAGMPVIAMISGGTPEVEINLPAAEYIRREQFDNYHCTFDIYPGETYPLKLISVTPKANANQLYTMRLQVVPGTRAIPSPGMNTMVTILCRTEQENTLSVPTGAILQKEGKAYVFVFHPSSNTVHRQEVSILRLLNNGHSLITSRQLQPGEQIVSSGVHHIEDGEIVKPLSPVTNTNIGGLL” as the sequence, how does the “soluble on expression in E. coli” value read?
**A.** not soluble

**Q.** With “MGSDKIHHHHHHENLYFQGAVDLDREGRDPAYVESIVKRSQKIVDKLELTDTVAAREVTTIIANRYFKLNDIYETRDAKVKLAKETLTGDAKQEAVKAAEAEKDAALYRTHFAFPADLSLYLDAKQIDAVKDGMTYGVVMVTYKATVDMIPTLKEEEKAQIMAWLVEAREFAMDAENSNKKHAAFGKYKGRINNYLSKRGYDLVKERKAWYERIKARGGKI” as the sequence, how does the “soluble on expression in E. coli” value read?
**A.** soluble

**Q.** With “MGSDKIHHHHHHENLYFQGDSFKTKSGKELTITFIKHGSLMLTYDNHSIQVDPVSEYADYTTFPKADIILITHEHGDHLDPKAIQAVEKSDTEIIANENSQKKLGKGKVLKNGDTDTSISYMKIEAVPAYNTTPGRDKYHPRHRDNGYILTFDGLRVYIAGDTEDIPEMKDLKDIDIAFLPVNQPYTMTVSQAAKAARMFSPKILYPYHYGDTKIGELKDALKDSGIDVRIRELQ” as the sequence, how does the “soluble on expression in E. coli” value read?
**A.** soluble

**Q.** Which “soluble on expression in E. coli” value does the source give for “MGSDKIHHHHHHESGDIITSDQMDEVDPVAGLNGMYAYLYKFDTMGYGDEAQHYDYGYHHILLCSDLWGQDMIQYSSKYGWYYTDYQFNQNSRAYQYISTFYFWNYLYKLIKSANDVLKTTTDDSKKEDRGQALGMRAFAYLTLVQMYQHTYAGHENAPAVPIVLETTEPDVLSNNPRASVKEVYDLIEKDLVQAHSDLSSYQRLNSTYIDQTVISGLLARMYLLKEDWTNAAKYAKEARASYGAPADKAELIDEGYIDMNKHHTWMFTSHITTDAEIVQTGIVNFISHISSTAYGYVTAGGMFKNISSELYSKIADNDIRKGWFADKDFTYEGGPMGSVALPKYANLKYMWYDLEGNNCNDLCYMRAEEMWLIEAEALAMGGNIAGGKSLLEEFVKTRQPDYVCDATDAKGIQDACWLQRRIEFWGEGIAWFDLKRLKKPIIRKYEGTNHNLDAQYDFPAEDDIFRILIPRKEIQDNNGIGEEDNNPMPNI” here?
**A.** not soluble

**Q.** Which “soluble on expression in E. coli” value does the source give for “MGSDKIHHHHHHETEAPQVTTSSRPAVEIKYNDPRDPFEEVNRTMWDFNYLFLDRYVIRPVAHGYKDYVPNPVRTGVNNFVYNLEEPSSLVNNTLQGKWGWAANAGGRFTVNTTIGLLGLVDVADMMGMHRKQDDFNEVLGYYGTPNGPYFMAPFYGPIVTREIASDWVDGLYFPLSELTIWQSVLKWGLKGLDARSKAIDQERLLDNALDPYAFVKDAYLQHMDYKVFDGDVPSSQADDELLDEYLDELE” here?
**A.** not soluble

**Q.** Which “soluble on expression in E. coli” value does the source give for “MGSDKIHHHHHHEVRSTFINFFREKKEHTYVHSSSVIPHDDPTLLFANAGMNQFKPLFLGIADPNSDLAKLKRAVNTQKCIRAGGKHNDLDDVGKDVYHHTYFEMLGNWSFGDYFKKEIITWAWELLTTVYGIPAERLYVSVFGGDEANGVPADSEARDIWRSVGVPDERILNFGMKDNFWEMGDVGPCGPCSEIHYDRIGNRDASHLVNADDPMVVEIWNLVFIQFNREEGGVLKPLPAKHIDCGLGLERLIAVMQDKTSNYDTDIFQPIFEAIHKGSGVRAYTGFIGDEDKDGVDMAYRVVADHVRTLTIALSDGGRPDNSGRGYVLRRILRRGVRYASEKLNAQPGFFASLVPVVISILGETFPELSRDPVTVMDIINDEEKQFLKTLSRGRVLFQRAVQSLPEGTMTFPGDVSWRLYDTYGFPADLTQLMAEEKGLSVDNTAFEEARRKAIETSSAGTGKFRDTLDLDVHALAELQQKGVPTTDDSPKYAYTFTGEGSDAVYKFEPCVGKILAIRRDGKFVDQLAAGEEGAILLDRTNFYAEQGGQIYDVGVLTKVNDESNEFNVSNCQVRGGYIVLVGSAEGSFSVGDQVNERFDEDRKQLIMKNHTGTHVLNYALRKVLADSDQKGSLVAPDRMRFDFTNKAGMTVQQVKKAEEYAQQLIDTKGQVYAKNSPLGEAKKVKGLRAMFDETYPDPVRVVAVGTPVEQLLQNPDAEEGQNTTVEFCGGTHLQNVSHIGRIVIASEEAIAKGIRRIVALTGPEAER” here?
**A.** not soluble

**Q.** Which “soluble on expression in E. coli” value does the source give for “MGSDKIHHHHHHGCSYGVGDDCLPPEEPVPIRMAIAEGKLSTRAPVTTIDASNLSNVGIYAVSEGSIAGQYPWTSTPFALNLVPSGISGSQLSFNPKLYYPLGGKRVIFYSYYPRTTATSGSNYITAPGNGVAPAYHFTLTGTEDIMYAAGTPTGSTSTMPVSLTFNHVLTQLQLNTSLLGALSSIKLLGVYNKGMLDIGNGNVTYDSSTTDITLTVPLLGSVTNTVMVPAGVASYKVEVVLLLSLLKRTYLVKPTSGNFQPGVIYTISL” here?
**A.** not soluble

**Q.** With “MGSDKIHHHHHHGDGNITTENIPVSEYDCLELEGGGMVVNYTQSDAPEGLEIKTDRNIFEKYEFNVENHKLKIRPKKEFRKHTNFRPTEFMVTANSRNLKKLAAAGSTHVNINSPLQAEEFEAGLAGSGIIQFHDTASFTNLKIEIAGSGDFVGHKVYCEELNGDMAGSNTIVLGGTVGIAEFSIAGSGTVRAFDCTMDELECKIAGSGDIEAFVVNKIKAEIAGSGSVKYKGDPQDIQKKVMGSGKIEKVE” as the sequence, how does the “soluble on expression in E. coli” value read?
**A.** not soluble

**Q.** For “MGSDKIHHHHHHGNLGKYSIYYAQNLPHETGTNSVMTAVFKHLGDVYIPYNSLDNDGNKMLETEDKTIHYQAGGMFSPTMITVKSTKDGDVLLSLQSDSQFPYCIYDFTENTYYGFNRAGTLVAEFIDSNTNVLSSHRVSALNTVNKLQNEMYGPIISHRKVPKINLQFIYNFVNEGKFK”, which “soluble on expression in E. coli” value is on record?
**A.** not soluble

**Q.** Which “soluble on expression in E. coli” value does the source give for “MGSDKIHHHHHHIYCSGKLLQTVMAVQLYPDSKTFVDQPMKENQTGKSIMEHFEKRFPVSIEKITKKDVAEFVDEFFDKEGNELDVCDLPDWRPITEQLANIKDASYQAFAQRLHFIWIQLCRQIKPEVKNDPSRFSLIYVPYQFILPGGRFREFYYWDAYWILKGLIASELYSTARMMILNFAHIIETYGFVPNGGRVYYLRRSQPPFFAPMVYEYYLATQDIQLVADLIPVIEKEYTFWSERRTVNVTYEHPDLNETLHMFQYRTEAETPRPESFREDVLSAEHFTTKDRKKQFFKDLGSAAESGWDFSSRWFKNHKDISTIETTNIVPVDLNAFLCYNMNIMQLFYKLTGNPLKHLEWSSRFTNFREAFTKVFYVPARKGWYDYNLRTLTHNTDFFASNAVPLFSQCYDPLNSQIAVDVYNEMQNSGAFSIPGGIPTSMNEETNQQWDFPNGWSPMNHMIIEGLRKSNNPILQQKAFTLAEKWLETNMQTFNVSDEMWEKYNVKEPLGKLATGGEYEVQAGFGWTNGAALDLIFTYSDRLQYNGPILESLVGSQTTSMKSSPDSSTSLPIDITTTITTSSSSSTFGYSNILTLITVFVLYIL” here?
**A.** not soluble
